Consider one molecule from paper PMC2688778 (Structure (London, England : 1993), 2009).

The data set deals with T1, RecE564 R746A (Escherichia coli K12, UniProt P15032 564-866, R746A).
T1 sequence: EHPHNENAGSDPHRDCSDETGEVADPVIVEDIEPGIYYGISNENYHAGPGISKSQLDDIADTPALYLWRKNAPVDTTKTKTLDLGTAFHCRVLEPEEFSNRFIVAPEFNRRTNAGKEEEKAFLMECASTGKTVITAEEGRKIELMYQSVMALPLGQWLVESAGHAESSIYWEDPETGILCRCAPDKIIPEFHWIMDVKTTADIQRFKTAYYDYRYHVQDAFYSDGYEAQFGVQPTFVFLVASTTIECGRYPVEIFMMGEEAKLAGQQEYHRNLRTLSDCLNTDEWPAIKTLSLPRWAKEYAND
In words: fluorescence anisotropy. In general terms: In fluorescence polarisation assays a small probe gives low polarisation when free and higher when bound to something large.

B1: F25 (dsDNA)
DNA 1: TAGAGCTTAATTGCTGAATCTGGTG
DNA 2: CACCAGATTCAGCAATTAAGCTCTA
In general, Kd refers to the free concentration of one partner at which half of the binding sites on the other are occupied at equilibrium, for simple one-to-one binding. Higher therefore signals a looser complex. For the molecule B1, binding was characterised by a dissociation constant (Kd) of 90 ± 10 nM.
